Reference: paper PMC2749713

Key:
[1] = target: Sgo1(51-96) peptide (human) (UniProt Q5FBB7); assay: crystal structure
[2] = target: AB’C PP2A holoenzyme with GST-tagged A subunit (GST-A, B’ and C subunits) (human) (UniProt P30153); assay: pull-down
Sequence of AB’C PP2A holoenzyme with GST-tagged A subunit (GST-A, B’ and C subunits) (human) (P30153 2-589, chain 1 of 3): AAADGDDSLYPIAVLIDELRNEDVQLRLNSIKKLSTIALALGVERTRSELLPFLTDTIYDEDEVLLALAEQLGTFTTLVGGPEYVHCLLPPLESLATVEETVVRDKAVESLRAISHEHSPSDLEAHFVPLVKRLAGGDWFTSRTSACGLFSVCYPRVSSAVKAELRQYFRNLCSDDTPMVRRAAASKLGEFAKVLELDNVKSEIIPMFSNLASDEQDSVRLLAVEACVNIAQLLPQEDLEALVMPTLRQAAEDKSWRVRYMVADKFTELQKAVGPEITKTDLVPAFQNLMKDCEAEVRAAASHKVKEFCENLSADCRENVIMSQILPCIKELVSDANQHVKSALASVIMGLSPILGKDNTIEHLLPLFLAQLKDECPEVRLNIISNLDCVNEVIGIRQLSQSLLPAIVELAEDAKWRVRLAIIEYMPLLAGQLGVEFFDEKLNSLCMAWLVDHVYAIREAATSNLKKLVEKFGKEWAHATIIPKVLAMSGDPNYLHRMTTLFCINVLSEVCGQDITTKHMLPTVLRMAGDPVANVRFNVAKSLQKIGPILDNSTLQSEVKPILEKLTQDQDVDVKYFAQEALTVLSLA
Sequence of AB’C PP2A holoenzyme with GST-tagged A subunit (GST-A, B’ and C subunits) (human) (Q13362 whole entry, chain 2 of 3, further chain): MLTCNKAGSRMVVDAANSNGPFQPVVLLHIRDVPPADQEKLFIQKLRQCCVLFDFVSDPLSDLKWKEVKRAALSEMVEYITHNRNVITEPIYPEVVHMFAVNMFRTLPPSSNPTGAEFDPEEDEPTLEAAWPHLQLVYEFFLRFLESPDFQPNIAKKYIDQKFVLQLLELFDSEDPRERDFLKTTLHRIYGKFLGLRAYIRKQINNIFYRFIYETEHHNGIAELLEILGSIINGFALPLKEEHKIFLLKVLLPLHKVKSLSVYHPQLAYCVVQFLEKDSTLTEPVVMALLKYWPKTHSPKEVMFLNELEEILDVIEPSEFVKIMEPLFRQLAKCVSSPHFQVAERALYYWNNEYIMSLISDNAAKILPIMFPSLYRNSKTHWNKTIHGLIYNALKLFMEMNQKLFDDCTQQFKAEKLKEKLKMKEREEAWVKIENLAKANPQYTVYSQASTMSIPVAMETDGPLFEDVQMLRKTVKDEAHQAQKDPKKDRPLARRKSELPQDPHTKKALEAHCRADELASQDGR
Sequence of AB’C PP2A holoenzyme with GST-tagged A subunit (GST-A, B’ and C subunits) (human) (P67775 whole entry, chain 3 of 3, further chain): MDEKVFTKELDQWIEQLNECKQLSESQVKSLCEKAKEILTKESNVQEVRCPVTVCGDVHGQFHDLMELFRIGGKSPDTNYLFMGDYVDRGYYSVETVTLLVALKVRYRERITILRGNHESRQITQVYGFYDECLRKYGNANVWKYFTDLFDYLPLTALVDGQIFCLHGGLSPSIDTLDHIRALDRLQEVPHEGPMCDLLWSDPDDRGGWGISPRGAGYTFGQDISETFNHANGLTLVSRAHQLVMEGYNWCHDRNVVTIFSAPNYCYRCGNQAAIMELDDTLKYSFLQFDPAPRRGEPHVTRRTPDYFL

Row | Substance | stoichiometry N [1] | stoichiometry N (Sgo2 per PP2A) [2]
1 | Sgo1(51-96) peptide (from UniProt Q5FBB7 51-96) | 2 | 
2 | MBP-Sgo2(45-117) (from UniProt Q7TSY8 45-117) (domain or fragment) |  | 2
